Assay results published in the supplement of paper PMC9170038.

Test system: MS2 coat protein
Assay: apparent KD of MS2 coat protein; designed switch direction (-1 OFF switch, 1 ON switch): -1; higher = weaker reporter binding
Outline: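 The reported apparent KD is a per-design median over clusters, from curve fits of normalised cluster fluorescence. Protein titrations used SNAP-549-labelled MS2 coat protein, doubled from 0.7 or 1.5 nM to 3 µM, in Tris-HCl pH 7.5 buffer with KCl, MgCl2, BSA, DTT, tRNA and Tween-20, with no input, 200 uM small-molecule ligand, or an oligonucleotide input. The RNA switches were transcribed on Illumina chips by stalled E. coli RNA polymerase.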

[1] = Eterna round: R95, input ligand: FMN 200 uM
[2] = Eterna round: R95, input ligand: microRNA oligo, concentration not stated
[3] = Eterna round: R95, input ligand: none
[4] = input ligand: microRNA oligo, concentration not stated

| Sequence | apparent KD of MS2 coat protein (input ligand: FMN 200 uM) [nM] | apparent KD of MS2 coat protein (input ligand: none) [nM] | apparent KD of MS2 coat protein [1] [nM] | apparent KD of MS2 coat protein [2] [nM] | apparent KD of MS2 coat protein [3] [nM] | apparent KD of MS2 coat protein [4] [nM] |
| --- | --- | --- | --- | --- | --- | --- |
| AUAAUGUAAGGAUAUCAGUCGUACAGCGAUAGCUGUACGACUGAGAAGGUACAUGAGGAUCACCCAUGUGAUCA [E4/8-A4] (Eterna round: R97, puzzle: Exclusion 4) | 666 | 3680 |  |  |  |  |
| AGUACUAUGCGAGCUGACUUGCGUAGUGCAGCAAGUGAAACAUGAGGAUCACCCAUGUCCUCAUUUGCUCGUCUUAU [Mat - Sensor v3 - Turn-off var 2 - D1] (puzzle: Sensor v3, turn-off variant 2) |  |  | 35.3 | 453 | 30.8 |  |
| AUAAGUGAUAAGGAUAUCACUAGCCUCGGCUAGUGAGAAGGUAUCACAUGAGGAUCACCCAUGUGUUCCAAUAA [Ex6/7-A2] (Eterna round: R97, puzzle: Exclusion 6) | 1350 | 169 |  |  |  |  |
| GUAAAGUGAGGAUAUGGUAAAUUAAUUAUUUAUUAAUUAAUCCAGAAGGCACAUGAGGAUCACCCAUGUAAAUG [Mat - Exclusion 4 - D94] (puzzle: Exclusion 4) |  |  |  | 26.5 |  |  |
| GUCAGCUCGUGAGGAUAUACAUCACUGCUUCGGCAGUGUAUUAAGAUCACAUGAGGAUCACCCAUGUAGAAGGCACGAGCUGAC [ENG2/2-A1] (Eterna round: R96, puzzle: Exclusion NG 2) | 309 | 29.6 |  |  |  | 34 |
| AAGAAGAUCGGAGGAUAUGGAGCUGAAACGGCGCUAGAAGGCCGUCUAGUGUAACAUGAGGAUCACCCAUGUAGGGACCUCUAA [EX ng 1 4.2] (Eterna round: R96, puzzle: Exclusion NG 1) | 944 | 558 |  |  |  | 633 |
| AACAACUCUGUGAGGAUAUGCAAUUGUUGAUCAAGGCAGAAGGCACAUGAGGAUCACCCAUGUUCCUACAAGGG [Reatanan] (puzzle: Brourd's mod of Exclusion 4) |  |  |  | 46.5 |  |  |
| CUCUUGUCAGGAUAUCAACGCCGCCCACACAGGCGGCGAAAUGAGAAGGGACAUGAGGAUCACCCAUGUUAAAA [Tiaonbi] (puzzle: Exclusion 4) |  |  | 24.3 | 86.1 | 168 |  |
| GGCGACCUAGGAUAUACAUGAGGAUCACCCAUGUUUAUCUAAUAGAUGAAGACGGGUUGUAGAAGGAGGAAAAU [Geriin] (puzzle: Exclusion 3) |  |  |  | 13.1 |  |  |
| UCAGUUCUGCAAGGAUAUCGUCCUAGUUUGGUACGAGAAGGUGCUUUUGUUUUUUCCUUGUGUUGACAUGAGGAUCACCCAUGU [JL JR Sub53 mod] (Eterna round: R96, puzzle: Exclusion NG 1) |  |  |  |  |  | 28.4 |
| CUGCUCCGUGUAGGAUAUCGCCGCACCACCCGGCGAGAAGGACAUGAGGAUCACCCAUGUAUGUUAUUAUCACGUGUGGCGCGA [Design 41] (Eterna round: R96, puzzle: Exclusion NG 1) | 16.4 | 17.1 |  |  |  | 13.9 |
| CUGGGCGGAGGAUAUACAGGUUUAAUAUAAAUUAAAUUGGGACAUGAGGAUCACCCAUGUAGAAGGUUGUUUAG [-13.6, -11.8 kcal, 32% A] (Eterna round: R97, puzzle: Exclusion 2) | 23.4 | 22.1 |  |  |  |  |
| AGUACUAACACGAUAGUGUUAGUACAAUAAGCUUGUGAAACAUGAGGAUCACCCAUGUCCUCAUAAGCUCGUCUUAU [salish99_TOv2_r3_030] (Eterna round: R96, puzzle: Sensor v3, turn-off variant 2) | 15.1 | 17.3 |  |  |  | 507 |
| CUGUGUAGACAGGAUAUGCUGUACAAAAGUACAGCAGAAGGGUCUACAUGAGGAUCACCCAUGUAUACUUCAUG [)mei Ex6 B24] (Eterna round: R97, puzzle: Exclusion 6) | 391 | 920 |  |  |  |  |
